Measured values reported in patent US10391180B2, “Self-assembling complex for targeting chemical agents to cells” (CEDARS-SINAI MEDICAL CENTER, priority 2007, dated 2019).

Columns and labels:
[1] = HerDox stability in serum-containing media at 37° C (Ni beads); assay type: in vitro ADME; conditions: 10% fetal bovine serum media
Method: FIGS. 6 (A)-(B) illustrates conjugate stability under different storage conditions, or in serum. As illustrated in FIG. 6 (A), HerDox was incubated up to 12 days at 4° C., RT, or 37° C. Samples were filtered through ultrafiltration spin columns every other day, and retentate and filtrate absorbances measured at 480 nm to determine relative Dox retention or release from conjugates, respectively. As illustrated in FIG. 6 (B), to mimic extended exposure to cells in culture medium, HerDox immobilized on Ni-NTA beads were incubated with bovine serum in DMEM for the indicated times at 37° C. before each sample was pelleted. Absorbance of supernatants (Filtrates) and bead eluates (Retentates) were measured at 480 nm to detect Dox. Relative Dox release or retention in serum is expressed as normalized to control (corresponding sample lacking serum). N=3 per time point.
The inventors tested the stability of HerDox over 12 days under different storage temperatures: 4° C., room temperature, or 37° C. On each day, a sample underwent ultrafiltration, then filtrates and retentates were measured to determine whether any Dox was released from the complex. […] The inventors also examined HerDox stability in serum-containing media at 37° C. […] Dox retention in the conjugate was also assessed by eluting the conjugate from the beads at each time point.

HER2+ tumors = assay: HerDox vs Dox biodistribution by Dox fluorescence imaging; assay type: in vivo, mice
Method: FIGS. 11 (A)-(B) illustrates preferential targeting of HerDox to HER2+ tumors. Tumor-bearing mice were injected with 0.75 nmoles of HerDox or Dox via the tail vein and imaged with a custom small animal imager. FIG. 11 (A) depicts imaging of live mice after IV delivery of HerDox. Tumors are indicated by arrows. FIG. 11 (B) depicts imaging of tumors and tissues harvested at 3 h after injection of HerDox or Dox. Fluorescence signal from Dox is pseudo-colored according to the color bar, with a shift toward 100 indicating high fluorescence intensity. FIG. 11 (B) illustrates a comparison of the targeted delivery of Dox to HER2+ breast cancer cells with minimal delivery to other organs and tissues using a delivery system in accordance with an embodiment of the present invention (left panel), as compared with Dox administered alone (right panel).
Dox emits a red fluorescence upon appropriate wavelength excitation, which can be used to detect biodistribution after systemic delivery of HerDox. Mice bearing 4-week old) tumors (˜700-800 mm^3) received a single tail vein injection of Dox or HerDox ([…] with respect to Dox cone) and images of live mice captured in real time, or of organs/tissues harvested at ˜3 h postinjection were acquired using a customized macro-illumination and detection system. Fluorescence was evident throughout the body at 10 min after HerDox injection, then quickly accumulated at the tumors by 20 min and remained detectable in the tumors up to 100 min after injection (FIG. 11 (A)).

MDA-MB-435 cells = assay: Intracellular translocation in live cells, Dox fluorescence microscopy; assay type: cell-based; conditions: for intracellular location of Dox fluorescence: 0.5 uM
Method: FIGS. 14 (A)-(B) illustrates comparison of HerDox and Dox intracellular translocation and targets in live cells. MDA-MB-435 cells were incubated with HerDox or free Dox (0.5 uM) at 37° C. Live (unfixed) cells were imaged by brightfield and fluorescence as depicted in […], or DIC and confocal fluorescence, as depicted in FIG. 14 (B), microscopy. Dox is indicated by red or magenta pseudocolor.
To understand the mechanism of HerDox mediated tumor cell death, the inventors examined HER2+ cells microscopically after treatment with HerDox, using Dox fluorescence to detect intracellular location. […] These dynamics, in addition to earlier targeting results, support a receptor-mediated HerDox entry mechanism. Even the intranuclear pattern of Dox when delivered by HerPBK10 differs from free Dox.

[2] = harvested at 3 h after injection
[3] = single tail vein injection, live imaging

B1: HerDox: non-covalent complex of HerPBK10, a small double-stranded nucleic acid and intercalated Dox (conjugate)
chain: LPPRLKEMKSQESAAGSKLVLRCETSSEYSSLRFKWFKNGNELNRKNKPQNIKIQKKPGKSELRINKASLADSGEYMCKVISKLGNDSASANITIVESNEIITGMPASTEGAYVSSESPIRISVSTEGANTSSSTSTSTTGTSHLVKCAEKEKTFCVNGGECFMVKDLSNPSRYLCKCQPGFTGARCTENVPMKVQNQEKAEELYMRRAAMYEEGPPPSYESVVSAAPVAAALGSPFDAPLDPPFVPPRYLRPTGGRNSIRYSELAPLFDTTRVYLVDNKSTDVASLNYQNDHSNFLTTVIQNNDYSPGEASTQTINLDDRSHWGGDLKTILHTNMPNVNEFMFTNKFKARVMVSRLPTKDNQVELKYEWVEFTLPEGNYSETMTIDLMNNAIVEHYLKVGRQNGVLESDIGVKFDTRNFRLGFDPVTGLVMPGVYTNEAFHPDIILLPGCGVDFTHSRLSNLLGIRKRQPFQEGFRITYDDLEGGNIPALLDVDAYQASLKDDTEQGGGGAGGSNSSGSGAEENSNAAAAAMQPVEDMNDHAIRGDTFATRAEEKRAEAEAAAEAAAPAAQPEVEKPQKKPVIKPLTEDSKKRSYNLISNDSTFTQYRSWYLAYNYGDPQTGIRSWTLLCTPDVTCGSEQVYWSLPDMMQDPVTFRSTRQISNFPVVGAELLPVHSKSFYNDQAVYSQLIRQFTSLTHVFNRFPENQILARPPAPTITTVSENVPALTDHGTLPLRNSIGGVQRVTITDARRRTCPYVYKALGIVSPRVLSSRTFKKKKKKKKKK
modifications: left off: small tags and cut ends
notes: non-covalent complex of HerPBK10, a small double-stranded nucleic acid and intercalated Dox
[1]
  release of Dox from the conjugate in serum: no significant release of Dox
[1]; each time point
  Dox retention by the conjugate in serum: completely retained
HER2+ tumors; [2]
  Dox fluorescence in heart, spleen, lungs, and skeletal muscle: did not exhibit any fluorescence
  Dox fluorescence in kidneys: barely detectable
  Dox fluorescence in liver: substantially lower levels of fluorescence
  Dox fluorescence in tumors: intense fluorescence
HER2+ tumors; [3]
  time by which fluorescence accumulated at the tumors: ≤ 20 min
  time fluorescence remained detectable in the tumors: up to 100 min
MDA-MB-435 cells; 0 min of uptake
  intracellular location of Dox fluorescence: mostly at the cell periphery
MDA-MB-435 cells; 60 min
  intracellular location of Dox fluorescence: accumulated in the nucleus
MDA-MB-435 cells; live cells, confocal
  intranuclear pattern of Dox: preferentially accumulates in nucleolar structures
